From publication PMC6572189, “Functional Fragments of AIMP1-Derived Peptide (AdP) and Optimized Hydrosol for Their Topical Deposition by Box-Behnken Design” (Molecules, 2019)

Legend:
[1] = tested on: keratinocytes (HaCaT cells); test: Cytotoxicity test (CCK-8); format: cell-based; settings: 10 or 100 μg/mL (up to 100 μg/mL), 24 h, CCK-8 assay, n = 3
Procedure: (§1) Figure 2 Non-cytotoxicity and non-immunogenicity of FA-AdP and MI-AdP: (a) To test cytotoxicity of FA-AdP and MI-AdP, keratinocytes (HaCaT cells) were incubated with doxorubicin (Dox, 10 μM), AdP (100 μg/mL), FA-AdP (10 or 100 μg/mL), and MI-AdP (10 or 100 μg/mL). After 24 h incubation, cytotoxicity was determined by CCK-8 assay; (b) for the immunogenicity test, monocytes (THP-1 cells) were used. After 12 h incubation with LPS (50 ng/mL), AdP (100 μg/mL), FA-AdP (10 or 100 μg/mL), and MI-AdP (10 or 100 μg/mL), the TNF-α level was measured in cultured media by ELISA.
(§2) The safety of FA-AdP and MI-AdP was verified in terms of cytotoxicity and immunogenicity. To test the cytotoxicity of the peptides, keratinocytes (HaCaT; 3 × 10^3 cells/well) were seeded into 96-well plate and cultivated. Cells were incubated with doxorubicin (Dox, 10 μM), AdP (100 μg/mL), FA-AdP (10 or 100 μg/mL), or MI-AdP (10 or 100 μg/mL). After 24 h incubation, cytotoxicity was determined by CCK-8 assay (Dojindo) according to the manufacturer’s manual. The immunogenicity of the peptides was evaluated by performing TNF-α ELISA. THP-1 cells (5 × 10^4 cells/well) were seeded on a 24-well plate. Cells were pre-incubated with 1% FBS containing media for 6 h. […] TNF-α amount in conditioned media was assessed by human TNF-α ELISA kit (BD Bioscience, San Jose, CA, USA) in accordance with the manufacturer instructions. […]

monocytes (THP-1 cells) = test: Immunogenicity test (TNF-α ELISA); format: cell-based, human; settings: 10 or 100 μg/mL, 12 h, TNF-α ELISA of cultured media, normalized to control, n = 3
Procedure: as §1, §2

[2] = tested on: Foreskin fibroblasts (HFF-1); test: Fibroblast proliferation assay (CCK-8); format: cell-based; settings: Fr3 0.1 μg/mL versus EGF 1 μg/mL; HFF-1 foreskin fibroblasts, 48 h, CCK-8 assay
Procedure: (§3) Figure 1 Fibroblast-activating (FA) and melanin-inhibiting (MI) domain mapping of AIMP1-derived peptide (AdP): (a) Foreskin fibroblasts were treated with EGF (1 μg/mL), AdP (0.1 μg/mL), and fragments of AdP (Fr1–Fr6; 0.1 μg/mL). After 24 h incubation, procollagen type I was determined in cultured media by ELISA; (b) after 48 h incubation, CCK8-assay was performed to monitor the proliferation of foreskin fibroblasts; (c) melanocytes, pre-treated with α-MSH (0.5 μM), were treated with albutin (At, 10 μM), AdP (1 μg/mL) and fragments of AdP (Fr1–Fr6, 1 μg/mL). After 48 h incubation, intracellular melanin was measured.
Foreskin fibroblast cells (HFF-1; 3 × 10^3 cells/well) were seeded into 96-well plate and cultivated. Cells were replaced with serum-free media and then treated with AdP, hEGF, and fragments of AdP for 48 h. Cell proliferation was determined CCK-8 assay (Dojindo, Kumamoto, Japan) in accordance with the manufacturer instructions. Proliferation was normalized by the proliferation of control group.

[3] = tested on: Foreskin fibroblasts (HFF-1); test: Collagen ELISA (procollagen type I in culture media); format: cell-based; settings: Fr3 0.1 μg/mL versus EGF 1 μg/mL, HFF-1 foreskin fibroblasts, 24 h
Procedure: as §3
Foreskin fibroblast cells (HFF-1; 5 × 10^4 cells/well) were seeded at a 24-well culture plate. Before peptide treatment, cells were pre-incubated with serum-free DMEM media for 6 h. Cells were treated with AdP, hEGF (Sigma-Aldrich, St. Louis, MO, USA) and fragments of AdP for 24 h. After 24 h treatment, media were harvested for collagen ELISA assay. Procollagen type I in the culture media was determined by Procollagen type I ELISA kit (Takara, Kusatsu, Japan) in accordance with the manufacturer instructions. Procollagen type I amount in the media was normalized by the Procollagen type I amount of control group.

Melanocytes (B16F10) = test: Measurement of intracellular melanin in α-MSH induced melanocytes; format: cell-based; settings: α-MSH 0.5 μM, 48 h
Procedure: as §3
Melanocytes (B16F10; 1 × 10^5 cells/well) were seeded into 6-well plate and cultivated. To induce melanin synthesis, α-MSH (0.5 μM), melanin inducer, was used. AdP and fragments of AdP were treated with α-MSH (0.5 μM) for 48 h. Intracellular melanin and tyrosinase activity were monitored as previously reported. Briefly, melanocytes (1 × 10^5 cells,) were lysed with 1 N NaOH at 70 °C for 1 h. Intracellular melanin was determined in lysed samples by 490 nm wavelength absorbance using microplate reader (Synergy 2, BioTek, Winooski, VM, USA).

Substance | cytotoxicity in keratinocytes [1] | TNF-α level compared with that of the control group (monocytes (THP-1 cells)) | fibroblast proliferation, more potent than EGF [2] | collagen induction, more potent than EGF [3] | inhibition effect on melanin synthesis, higher than albutin (Melanocytes (B16F10); Fr4 1 μg/mL versus albutin 10 μM) | inhibition of melanin synthesis induced by α-MSH, compared with AdP (Melanocytes (B16F10); 1 μg/mL, intracellular melanin by absorbance at 490 nm, mean n = 3, versus AdP 1 μg/mL)
Fr3: 14–28 residue fragment of AIMP1; fibroblast-activating domain of AdP (KGAEADQIIEYLKQQ; UniProt Q12904 14-28, looked up, fragment) | no cytotoxicity | no significant difference | 10% | 15% | – | –
Fr4: 18–32 residue fragment of AIMP1; melanocyte-inhibiting domain of AdP (ADQIIEYLKQQVSLL; UniProt Q12904 18-32, looked up, fragment) | no cytotoxicity | no significant difference | – | – | 35% | comparable inhibition
